Assay results from the nanobody polyreactivity screen of Harvey et al. (2022).

test: yeast display, Sf9 membrane polyspecificity reagent, FACS + sequencing; frameworks hold sequencing errors
In short: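 A nanobody's polyreactivity label depends on the gate it was sorted from. Yeast display cells were stained with 10% biotinylated, detergent-solubilized Sf9 membrane reagent for 1 hour at 4 °C, enriched on streptavidin microbeads and sorted by FACS. The low and high (top ~1%) gates were set on anti-HA fluorescence for expression and streptavidin fluorescence for reagent binding.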

Row | Sequence | polyreactivity (PSR sort gate)
1 | QVQLVESGGGLVQAGGSLRLSCAASGRIFYPYAMGWYRQAPGKERDLVAAIRRSGVDTYYADSVKGRFTISRDNAKNTVYLQMNSLKPEDTAVYYCNKDGGGDSYWYDYWGQGTQVTVSS | low polyreactivity
2 | QVQLVESGGGLVQAGGSLRLSCAASGRIFYPYAMGWYRQAPGKERELVAAIRWSSGNTRYADSVKGRFTISRDNAKNTVYLQMNSLKPEDTAVYYCAAPAVHILQTVSLTPRPLDYWGQGTQVTVSS | high polyreactivity
3 | QVQLVESGGGLVQAGGSLRLSCAASGRIFYPYAMGWYRQAPGKERELVAAISRSGGSTYYADTVKGRFTISRDNAKNTVYLQMNSLKPEDTAVYYCAAEVVYFYSDAHIGYVDYEYWGQGTQVTVSS | low polyreactivity
4 | QVQLVESGGGLVQAGGSLRLSCAASGRIFYPYAMGWYRQAPGKERELVALISWGGGSTYYADSVKGRFTISRDNAKNTVYLQMNSLKPEDTAVYYCAASYVGYWYRRGYGYWGQGTQVTVSS | high polyreactivity
5 | QVQLVESGGGLVQAGGSLRLSCAASGRIFYPYAMGWYRQAPGTERELVATITRTGSTYYADSVKGRFTISRDNAKNTVYLQMNSLKPEDTAVYDCAVQRSYVGPRQYNYWGQGTQVTVSS | high polyreactivity
6 | QVQLVESGGGLVQAGGSLRLSCAASGRIFYQYAMGWYRQAPGKERELVAAIRYRDDGTYYADSVKGRFTISRDNAKNTVYLQMNSLQPEDTAVYYCAAKQWGRYGYWGQGTQVTVSS | high polyreactivity
7 | QVQLVESGGGLVQAGGSLRLSCAASGRIFYRNAMGWYRQAPGKERELVAAISYSGGRTYYADSVKGRFTISRDNAKNTVYLQMNSLKPEDTAVFYCAARYAWGYVDPGDYWGQGTQVTVSS | high polyreactivity
8 | QVQLVESGGGLVQAGGSLRLSCAASGRIFYRNAMGWYRQAPGKERELVAAITSGGSTYYADSVKGRFTISRDNAKNTVYLQMNSLKPEDTAVYYCAAAYQRWFNRRDYWGQGTQVTVSS | high polyreactivity
9 | QVQLVESGGGLVQAGGSLRLSCAASGRIFYRYAMGWYRQAPGKERELVAAINKSGGSTYYADSVKGRFTISRDNGKNTVSLQMKSLKPEDTAVYYCTAVYYWYKGDYWGQGTQVTVSS | high polyreactivity
10 | QVQLVESGGGLVQAGGSLRLSCAASGRIFYRYAMGWYRQAPGKERELVAAIRSGGRTNYADSVKGRFTISRDNAKNTVYLQMNSLKPEDTAVYYCNAVWRYYRKRRAGDFGYWGQGTQVTVSS | low polyreactivity
11 | QVQLVESGGGLVQAGGSLRLSCAASGRIFYRYAMGWYRQAPGKERELVAAISRNGGSTNYADSVKGRFTISRDNAKNTVYLQMNSLKPEDTAVYYCAARPPTTRPYDYDYWGQGTQVTVSS | high polyreactivity
12 | QVQLVESGGGLVQAGGSLRLSCAASGRIFYRYAMGWYRQAPGKERELVAAISSAGSTNYADSVKGRFTISRDNAKNTVYLQMNSLKPEDTAVYYCNTVTRWVGKLEYWGQGTQVTVSS | high polyreactivity
13 | QVQLVESGGGLVQAGGSLRLSCAASGRIFYRYAMGWYRQAPGKERELVAAITRGGRTNYADSVKGRFTISRDNAQNTVYLQMNSLKPEDTAVYYCRPLWYGFDYWGQGTQVTVSS | high polyreactivity
14 | QVQLVESGGGLVQAGGSLRLSCAASGRIFYRYAMGWYRQAPGKERELVAGITRGGSTYYADSVKGRFTISRDNAKNTVYFQMNSLKPEDTAVYYCNVRWSPAGTGLLDYWGQGTQVTVSS | high polyreactivity
15 | QVQLVESGGGLVQAGGSLRLSCAASGRIFYRYAMGWYRQAPGKERELVATITNGGSTNYADSVKGRFTISRDNAKNTVYLQMNSLKPEDTAVYYCAARLPGYYGIGDYWGQGTQVTVSS | high polyreactivity
16 | QVQLVESGGGLVQAGGSLRLSCAASGRIFYRYAMGWYRQAPGKERELVAVISGGGTYYADSVKGRFTISRDNAKNTVYLQMNSLKPEDTAVYYCAADDGVSLVSPYYGGYDYWGQGTQVTVSS | low polyreactivity
17 | QVQLVESGGGLVQAGGSLRLSCAASGRIFYRYGMGWYRQAPGKERELVASITRGGSTYYADSVKGRFTISRDNAKNTVYLQMNSLKPEDTAVYYCATKSSAGYDYWGQGTQVTVSS | low polyreactivity
18 | QVQLVESGGGLVQAGGSLRLSCAASGRIFYRYSMGWYRQAPGKERELVAAIRYSGGTTYADSVKGRFTISRDNAKNTVYLQMNSLKPEDTAVYYCAARASLWGGFESWGQGTQVTVSS | high polyreactivity
19 | QVQLVESGGGLVQAGGSLRLSCAASGRIFYSNAMGWYRQAPGKERELVAAISGSTDSTYYADSVKGRFTISRDNAKNTVYLQMNSLKPEDTAVYYCAAADYWFYYGYYLTMDYWGQGTQVTVSS | low polyreactivity
20 | QVQLVESGGGLVQAGGSLRLSCAASGRIFYSNTMGWYRQAPGKERELVAAITWRGGRTHYADSVKGRLTISRDNAKNPVYLQMNSLTPEDTAVYYCAARYIPIQYPSYRTWGGYSWGQGTQVTVSS | high polyreactivity
21 | QVQLVESGGGLVQAGGSLRLSCAASGRIFYSNVMGWYRQAPGKERELVAAISGRTGGTYYADSVKGRFTISRDNAKNTVYLQMNSLKPEDTAVYYCAARVGWNKRRYDYWGQGTQVTVSS | low polyreactivity
22 | QVQLVESGGGLVQAGGSLRLSCAASGRIFYSYAMGWYRQAPGKERELDAAITRGGSTSYADSVKGRFTISRDNAKNTVYLQMNSLKPEDTAVYYCATRQFYSYWKYYYWGQGTQVTVSS | high polyreactivity

Row | Sequence | polyreactivity (PSR sort gate)
23 | QVQLVESGGGLVQAGGSLRLSCAASGRIFYSYAMGWYRQAPGKERELVAAITESGGSTNYADSVKGRFTISRDNAKNTVYLQMNSLKPEDTAVYYCNARYKLTFNLYNYWGQGTQVTVSS | low polyreactivity
24 | QVQLVESGGGLVQAGGSLRLSCAASGRIFYSYAMGWYRQAPGKERELVAAITRTGGNTYYADSVKGRFTISRDNAKNTVYLQMNSLKPEDTAVYYCNAEYWKEHYPEIYYSWGQGTQVTVSS | low polyreactivity
25 | QVQLVESGGGLVQAGGSLRLSCAASGRIFYSYAMGWYRQAPGKERELVAAITVSGGSTFYADSVKGRFTISRDNAKNTVYLQMNSLKPEDTAVYYCAATRFSQYDWGQGTQVTVSS | high polyreactivity
26 | QVQLVESGGGLVQAGGSLRLSCAASGRIFYSYAMGWYRQAPGKERELVARISSGGSTNYADSVKGRFTISRDNAKNTVYLQMNSLKPEDTAVYYCAAATIWSGVHYGYWGQGTQVNVSS | low polyreactivity
27 | QVQLVESGGGLVQAGGSLRLSCAASGRIFYSYAMGWYRQAPGKERELVATISSGGSTNYADSVKGRFTISRDNAKNTVYLQMNSLKPEDTAVYYCARDSTYSSYTSNDYWGQGTQVTVSS | high polyreactivity
28 | QVQLVESGGGLVQAGGSLRLSCAASGRIFYSYAMGWYRQAPGKERELVATITNGGSTNYADSVKGRFTMSRDNAKNTVYLQMNSLKPEDTAVYYCAKRSFRYASALVRYPPGYYWGQGTQVTVSS | high polyreactivity
29 | QVQLVESGGGLVQAGGSLRLSCAASGRIFYTNAMGCYRQAPGKERELVAAIRSGGITTYADSVKGRFTISRDNAKNTVYLQMNSLKPEDTAVYYCATRILSIYSIFGAYDYWGQGTQVTVSS | low polyreactivity
30 | QVQLVESGGGLVQAGGSLRLSCAASGRIFYTNAMGWSRQAPGKERELVAVISWGGDTTYYADSVKGRFTISRDNAKNTVYLQLNSLKPEDTAVYYCNADWGPTYEIYDSWGQGTQVTVSS | low polyreactivity
31 | QVQLVESGGGLVQAGGSLRLSCAASGRIFYTYAMGWYRQAPGKASELVAAITYRGGSTYYADSVKGRFTISRDIAKNTVYLQMNSLKPADTAVYYCAARPGRGPDSRWRYKYDYWGQGTQVTVSS | high polyreactivity
32 | QVQLVESGGGLVQAGGSLRLSCAASGRIFYVNAMGWYRQAPGKERELVAAISGSGGRTYYADSVKGRFTISRDNAKNTVYLQMNSLKPEDTAVYYWNTQFRYPQKYDYWGQGTQVTVSS | high polyreactivity
33 | QVQLVESGGGLVQAGGSLRLSCAASGRIFYVNTMGWYRQAPGKERELVATISSAASTNYADSVKGRFTISRDNAKNTVYLQMNSLKPEDTAVYYCNAAFYKEYFYWGQGTQVTVSS | low polyreactivity
34 | QVQLVESGGGLVQAGGSLRLSCAASGRIFYVYAMGWYRQAPGKERELVAAISSDDGSTYYADSVKGRFTISRDNAKNTVYLQMNSLKPEVTAVYYCAKANKRGRYNYWGQGTQVTVSS | high polyreactivity
35 | QVQLVESGGGLVQAGGSLRLSCAASGRIFYVYGLGWYRQEPGKERELVAAISKRGDNTYYADSVKGRFTISRDNSKNTVYLQMNSLKPEDTAVYYCKVKRYGGRSDYWGQGTQVTVSS | high polyreactivity
36 | QVQLVESGGGLVQAGGSLRLSCAASGRIFYVYSMGWYRQAPGKDRELVADISRGGSTNYADSVKGRFTISRDNAKNTVYLQMNSLKPEDTAVYYCNTDGLWSAEYDYWGQGTQVTVSS | low polyreactivity
37 | QVQLVESGGGLVQAGGSLRLSCAASGRIFYVYTMGWYRQAPGKERELVAAITWRGGSTYYADSVKGRFTISRDNAKNTVYLQMNSLKPEDTAVYYCATAQWVGYWDDYWGQGTQVTVSS | high polyreactivity
38 | QVQLVESGGGLVQAGGSLRLSCAASGRIFYWYDMGWYRQAPGKERELVAAISTRGGSTYYADSVKGRFTISRDNAKNTVYLQMNSLKPEDTAVYYCAARANPYVLKYYYWGQGTQVTVSS | high polyreactivity
39 | QVQLVESGGGLVQAGGSLRLSCAASGRIFYYNAMGWYRPAPGKERELVAAIDWSGGSTYYADSVKGRFTISRDNAKNTVYLQMNSLKPEDTAVYYCNAPFRYVPPEGSGPYDYWGQGTQVTVSS | low polyreactivity
40 | QVQLVESGGGLVQAGGSLRLSCAASGRIFYYNAMGWYRPAPGKERELVATITGSGGSTYYADSVKGRFTISRDNAKNTVYLQMNSLKPEDTAVYYCNATRWYYDFYKLDYWGQGTQVTVSS | low polyreactivity
41 | QVQLVESGGGLVQAGGSLRLSCAASGRIFYYNAMGWYRQAPGKERELVAGITWRGGSTYYADSVKGRFTISRDNAKNTVYVQMNSLKPEDTAVYYCAKVGWTPYGVSPYDYWGQGTQVTVSS | high polyreactivity
42 | QVQLVESGGGLVQAGGSLRLSCAASGRIFYYNAMGWYRQAPGKEWELVAAISSSGTTYYADSVKGRFTISRDNAKNTVYLQMNSLKPEDTAVYYCAAGSYWSPYGQSFWPKYDYWGQGTQVTVSS | high polyreactivity
43 | QVQLVESGGGLVQAGGSLRLSCAASGRIFYYNGMGWSRQAPGKERELVAAITANGGSTYYADSVKGRFTISRDNAKNTVYLQMNSLKPDDTAVYYCAARYRFGGIRRYNYWGQGTQVTVSS | high polyreactivity
